The numbers were not newly measured in publication PMC2797979 (Diabetes Care, 2009), which cites them from elsewhere.

The conditions of this data set: long-acting insulin analogs.

detemir: the Elimination half-life was 24 h.
